Assay results published in paper PMC10942865.

T1: β-TrCP, endogenous, Q9Y297
T1 chain: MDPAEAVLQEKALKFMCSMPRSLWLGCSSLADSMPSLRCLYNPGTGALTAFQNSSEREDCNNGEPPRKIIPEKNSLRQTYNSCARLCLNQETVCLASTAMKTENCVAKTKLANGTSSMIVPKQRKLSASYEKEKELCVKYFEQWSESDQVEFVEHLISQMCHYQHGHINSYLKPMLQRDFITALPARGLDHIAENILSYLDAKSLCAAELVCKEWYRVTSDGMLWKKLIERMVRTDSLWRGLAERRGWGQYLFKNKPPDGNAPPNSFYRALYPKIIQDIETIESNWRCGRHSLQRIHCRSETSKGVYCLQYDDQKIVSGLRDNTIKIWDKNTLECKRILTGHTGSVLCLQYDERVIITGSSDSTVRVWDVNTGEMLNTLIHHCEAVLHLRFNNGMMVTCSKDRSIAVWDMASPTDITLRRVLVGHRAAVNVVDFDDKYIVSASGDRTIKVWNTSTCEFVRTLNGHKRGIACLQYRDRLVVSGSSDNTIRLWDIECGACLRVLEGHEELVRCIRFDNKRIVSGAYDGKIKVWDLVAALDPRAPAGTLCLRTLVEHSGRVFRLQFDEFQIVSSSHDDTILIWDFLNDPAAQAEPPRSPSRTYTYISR


Molecular target: T1, β-TrCP, endogenous, Q9Y297
Assay: co-immunoprecipitation (IP against Flag tag, Western blot quantification)
Conditions: chain shown with the change; HEK293T cells, 48 h overexpression, N = 3; parent: est. 1.0; read off a plot

Row | ratio to parent | Binder
1 | 0.07 | Flag-PLK4 wt (polo-like kinase 4), full-length, O00444 K41R (protein) MATCIGEKIEDFKVGNLLGKGSFAGVYRAESIHTGLEVAIRMIDKKAMYKAGMVQRVQNEVKIHCQLKHPSILELYNYFEDSNYVYLVLEMCHNGEMNRYLKNRVKPFSENEARHFMHQIITGMLYLHSHGILHRDLTLSNLLLTRNMNIKIADFGLATQLKMPHEKHYTLCGTPNYISPEIATRSAHGLESDVWSLGCMFYTLLIGRPPFDTDTVKNTLNKVVLADYEMPSFLSIEAKDLIHQLLRRNPADRLSLSSVLDHPFMSRNSSTKSKDLGTVEDSIDSGHATISTAITASSSTSISGSLFDKRRLLIGQPLPNKMTVFPKNKSSTDFSSSGDGNSFYTQWGNQETSNSGRGRVIQDAEERPHSRYLRRAYSSDRSGTSNSQSQAKTYTMERCHSAEMLSVSKRSGGGENEERYSPTDNNANIFNFFKEKTSSSSGSFERPDNNQALSNHLCPGKTPFPFADPTPQTETVQQWFGNLQINAHLRKTTEYDSISPNRDFQGHPDLQKDTSKNAWTDTKVKKNSDASDNAHSVKQQNTMKYMTALHSKPEIIQQECVFGSDPLSEQSKTRGMEPPWGYQNRTLRSITSPLVAHRLKPIRQKTKKAVVSILDSEEVCVELVKEYASQEYVKEVLQISSDGNTITIYYPNGGRGFPLADRPPSPTDNISRYSFDNLPEKYWRKYQYASRFVQLVRSKSPKITYFTRYAKCILMENSPGADFEVWFYDGVKIHKTEDFIQVIEKTGKSYTLKSESEVNSLKEEIKMYMDHANEGHRICLALESIISEEERKTRSAPFFPIIIGRKPGSTSSPKALSPPPSVDSNYPTRERASFNRMVMHSAASPTQAPILNPSMVTNEGLGLTTTASGTDISSNSLKDCLPKSAQLLKSVFVKNVGWATQLTSGAVWVQFNDGSQLVVQAGVSSISYTSPNGQTTRYGENEKLPDYIKQKLQCLSSILLMFSNPTPNFH
2 | 0.03 | Flag-PLK4 wt (polo-like kinase 4), full-length, O00444 S285A; T289A (protein) MATCIGEKIEDFKVGNLLGKGSFAGVYRAESIHTGLEVAIKMIDKKAMYKAGMVQRVQNEVKIHCQLKHPSILELYNYFEDSNYVYLVLEMCHNGEMNRYLKNRVKPFSENEARHFMHQIITGMLYLHSHGILHRDLTLSNLLLTRNMNIKIADFGLATQLKMPHEKHYTLCGTPNYISPEIATRSAHGLESDVWSLGCMFYTLLIGRPPFDTDTVKNTLNKVVLADYEMPSFLSIEAKDLIHQLLRRNPADRLSLSSVLDHPFMSRNSSTKSKDLGTVEDSIDAGHAAISTAITASSSTSISGSLFDKRRLLIGQPLPNKMTVFPKNKSSTDFSSSGDGNSFYTQWGNQETSNSGRGRVIQDAEERPHSRYLRRAYSSDRSGTSNSQSQAKTYTMERCHSAEMLSVSKRSGGGENEERYSPTDNNANIFNFFKEKTSSSSGSFERPDNNQALSNHLCPGKTPFPFADPTPQTETVQQWFGNLQINAHLRKTTEYDSISPNRDFQGHPDLQKDTSKNAWTDTKVKKNSDASDNAHSVKQQNTMKYMTALHSKPEIIQQECVFGSDPLSEQSKTRGMEPPWGYQNRTLRSITSPLVAHRLKPIRQKTKKAVVSILDSEEVCVELVKEYASQEYVKEVLQISSDGNTITIYYPNGGRGFPLADRPPSPTDNISRYSFDNLPEKYWRKYQYASRFVQLVRSKSPKITYFTRYAKCILMENSPGADFEVWFYDGVKIHKTEDFIQVIEKTGKSYTLKSESEVNSLKEEIKMYMDHANEGHRICLALESIISEEERKTRSAPFFPIIIGRKPGSTSSPKALSPPPSVDSNYPTRERASFNRMVMHSAASPTQAPILNPSMVTNEGLGLTTTASGTDISSNSLKDCLPKSAQLLKSVFVKNVGWATQLTSGAVWVQFNDGSQLVVQAGVSSISYTSPNGQTTRYGENEKLPDYIKQKLQCLSSILLMFSNPTPNFH
